Measured values: patent WO2006132352A1

Target: MG10 (Gln213 to Ala231 of the human Mpl amino acid sequence) and GST fusion protein (human) (UniProt P40238)
Assay: SPR, Biacore 3000, MG10-GST amine-coupled on CM5, sc(Fv)2 at about 5-150 nM as analyte, bivalent analyte model

Binder | Kd
humanized anti-human Mpl antibody hVB22B u2-wz4 sc(Fv)2 (bulk, before separation of the structural isomers) (scFv, from another filing) QVQLVQSGPEVKKPGASVKVSCKASGYTFTNSWMNWVRQRPGKGLEWIGRIYPGDGETIYNGKFRVRVTITADESTSTAYMQLSSLRSEDTAVYYCARGYDDYSFAYWGQGTTVTVSSGGGGSGGGGSGGGGSDIVMTQSPLSLPVTPGEPASISCRSSKSLLHSNGNTYLYWFLQKPGQSPQLLIYRMSNLASGVPDRFSGSGSGTDFTLKISRVEAEDVGVYYCMQHIEYPFTFGQGTKLEIKGGGGSGGGGSGGGGSQVQLVQSGPEVKKPGASVKVSCKASGYTFTNSWMNWVRQRPGKGLEWIGRIYPGDGETIYNGKFRVRVTITADESTSTAYMQLSSLRSEDTAVYYCARGYDDYSFAYWGQGTTVTVSSGGGGSGGGGSGGGGSDIVMTQSPLSLPVTPGEPASISCRSSKSLLHSNGNTYLYWFLQKPGQSPQLLIYRMSNLASGVPDRFSGSGSGTDFTLKISRVEAEDVGVYYCMQHIEYPFTFGQGTKLEIK | 10.2 nM
hVB22B u2-wz4 sc(Fv)2 peak2 (single chain diabody type structural isomer) (scFv, from another filing) QVQLVQSGPEVKKPGASVKVSCKASGYTFTNSWMNWVRQRPGKGLEWIGRIYPGDGETIYNGKFRVRVTITADESTSTAYMQLSSLRSEDTAVYYCARGYDDYSFAYWGQGTTVTVSSGGGGSGGGGSGGGGSDIVMTQSPLSLPVTPGEPASISCRSSKSLLHSNGNTYLYWFLQKPGQSPQLLIYRMSNLASGVPDRFSGSGSGTDFTLKISRVEAEDVGVYYCMQHIEYPFTFGQGTKLEIKGGGGSGGGGSGGGGSQVQLVQSGPEVKKPGASVKVSCKASGYTFTNSWMNWVRQRPGKGLEWIGRIYPGDGETIYNGKFRVRVTITADESTSTAYMQLSSLRSEDTAVYYCARGYDDYSFAYWGQGTTVTVSSGGGGSGGGGSGGGGSDIVMTQSPLSLPVTPGEPASISCRSSKSLLHSNGNTYLYWFLQKPGQSPQLLIYRMSNLASGVPDRFSGSGSGTDFTLKISRVEAEDVGVYYCMQHIEYPFTFGQGTKLEIK | 9.92 nM
hVB22B u2-wz4 sc(Fv)2 peak1 (bivalent scFv type structural isomer) (scFv, from another filing) QVQLVQSGPEVKKPGASVKVSCKASGYTFTNSWMNWVRQRPGKGLEWIGRIYPGDGETIYNGKFRVRVTITADESTSTAYMQLSSLRSEDTAVYYCARGYDDYSFAYWGQGTTVTVSSGGGGSGGGGSGGGGSDIVMTQSPLSLPVTPGEPASISCRSSKSLLHSNGNTYLYWFLQKPGQSPQLLIYRMSNLASGVPDRFSGSGSGTDFTLKISRVEAEDVGVYYCMQHIEYPFTFGQGTKLEIKGGGGSGGGGSGGGGSQVQLVQSGPEVKKPGASVKVSCKASGYTFTNSWMNWVRQRPGKGLEWIGRIYPGDGETIYNGKFRVRVTITADESTSTAYMQLSSLRSEDTAVYYCARGYDDYSFAYWGQGTTVTVSSGGGGSGGGGSGGGGSDIVMTQSPLSLPVTPGEPASISCRSSKSLLHSNGNTYLYWFLQKPGQSPQLLIYRMSNLASGVPDRFSGSGSGTDFTLKISRVEAEDVGVYYCMQHIEYPFTFGQGTKLEIK | 12.4 nM
